Non-standard residues stand in square brackets, D forms with d. Residues, ends and D or L forms follow the SMILES beside them. No end group written: not given here. *: point of attachment. Fmoc = O=C(OCC1c2ccccc2-c2ccccc21)*; Cha = N[C@@H](CC1CCCCC1)C(=O)O; AMC = Cc1cc(=O)oc2cc(N*)ccc12 Some results are limits rather than exact numbers.

The target in experiment [1] is T1, GalR1 (Homo sapiens, UniProt P47211).
T1 sequence (P47211 1-349): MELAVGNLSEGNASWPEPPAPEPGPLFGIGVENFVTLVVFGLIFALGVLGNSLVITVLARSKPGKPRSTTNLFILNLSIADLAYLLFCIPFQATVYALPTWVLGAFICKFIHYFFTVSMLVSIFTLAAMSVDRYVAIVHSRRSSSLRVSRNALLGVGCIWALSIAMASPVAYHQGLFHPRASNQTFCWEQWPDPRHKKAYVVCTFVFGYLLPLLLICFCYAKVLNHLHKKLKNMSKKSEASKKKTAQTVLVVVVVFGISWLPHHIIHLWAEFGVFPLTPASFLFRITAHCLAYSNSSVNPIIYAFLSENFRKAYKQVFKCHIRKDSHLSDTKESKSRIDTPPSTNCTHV
Nature of the experiment: β-arrestin recruitment, PathHunter CHO-K1 GALR1 cells. The class given is cell-based. The conditions noted are these: for Emax: CHO-K1, 1.5 h, read-out: GalR1 Beta Arrestin IA (%). As to the method: (§1) Ligands were prepared at half log dilutions using cell plating reagent 2. 5 μl of each ligand was added to cells and plates incubated at 37° C. for 90 minutes. DiscoverX PathHunter detection kit (DiscoverX, USA) was added to cells as described my manufacturer's guidelines and plates incubated for 60 minutes at room temperature in the dark. Chemiluminescent signal was measured using the PHERAstar FS (BMG, Germany).
(In general: Recruitment of arrestin is a read-out of receptor activation apart from second messengers.)

Experiment [2] has as its target T1, GalR1. Put plainly: cAMP HTRF assay, CHO GalR1 cells. The class given is cell-based. Set-up: expressed in transfected cells; host or cells: CHO (Flp-In, pcDNA5/FRT). As to conditions: for Emax: read-out: GalR1 cAMP IA (%); for GalR1 activity (cAMP assay), linker variants: Table 7, highest concentration tested 10 μM. As to the method: The CAMP dynamic 2 kit (Cisbio International) was used as a competitive immunoassay to measure Homogenous Time-Resolved Fluorescence (HTRF). […] Addition of detection reagent involved adding 5 μl d2 conjugated CAMP followed by 5 μl anti-CAMP cryptate conjugate. The two reagents were not pre-mixed; these were both prepared in cell lysis buffer and incubated at room temperature in the dark for one hour.
On the technique in general: In TR-FRET formats the signal depends on donor and acceptor labels being close together.

For experiment [3], the target named is T2, GALR2 (Homo sapiens, UniProt O43603).
T2 sequence (O43603 1-387): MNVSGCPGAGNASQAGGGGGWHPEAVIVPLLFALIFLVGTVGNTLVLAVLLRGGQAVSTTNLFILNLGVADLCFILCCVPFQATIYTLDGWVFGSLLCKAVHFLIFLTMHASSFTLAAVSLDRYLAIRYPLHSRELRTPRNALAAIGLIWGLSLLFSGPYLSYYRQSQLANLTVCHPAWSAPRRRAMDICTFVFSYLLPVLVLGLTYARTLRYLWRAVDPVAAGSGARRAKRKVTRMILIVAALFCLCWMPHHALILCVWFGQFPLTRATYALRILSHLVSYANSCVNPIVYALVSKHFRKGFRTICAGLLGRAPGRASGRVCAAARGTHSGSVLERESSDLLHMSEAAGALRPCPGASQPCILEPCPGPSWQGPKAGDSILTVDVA
Nature of the experiment: β-arrestin recruitment, PathHunter CHO-K1 GALR2 cells. The class given is cell-based. The conditions noted are these: for GalR2 Beta Arrestin, mean pEC50: Table 2, mean +/− standard deviation, n ≥ 3. As to the method:
as §1

For experiment [4], the target named is T2, GALR2. Nature of the experiment: Calcium assay, CHO GalR2 cells (FLIPR). As to conditions: for GalR2 Calcium, mean pEC50: Table 2, n ≥ 3; for GalR2 Calcium, mean pEC50 / GalR2 activity (calcium assay), linker variants / GalR2 activity (calcium assay), warhead length: mean +/− standard deviation; for GalR2 activity (calcium assay), linker variants: Table 7; for GalR2 activity (calcium assay), linker variants / GalR2 activity (calcium assay), warhead length: highest concentration tested 10 μM; for GalR2 activity (calcium assay), warhead length: Table 6.
Protocol: CHO GalR2 cells were plated at 10,000 cells per well in black clear bottom plates (corning, USA) and incubated overnight at 37° C. with 5% CO2. […] Ligands were prepared at a 5× concentration and added to cells using the FLIPR (Molecular Devices, USA). Baseline was typically 20 seconds before ligand addition. […] For analysis, fluorescence was normalised to pre-addition baseline and peak fluorescence used for all quantification.
In brief, a panel of functional cell-based microtiter-plate assays were developed using recombinant GalR1 and GalR2 receptors stably expressed in CHO cells. […] Nominally this equated to 10 serial (~3fold) dilutions with highest concentrations of 10-1 μM as appropriate.
In addition to generating both potency and efficacy estimates, the latter being expressed relative to native galanin, both G-protein and non-G-Protein signalling pathways were measured.

A further experiment deals with T3, mouse GalR2 (Mus musculus, UniProt O88854).
T3 sequence (O88854 1-371): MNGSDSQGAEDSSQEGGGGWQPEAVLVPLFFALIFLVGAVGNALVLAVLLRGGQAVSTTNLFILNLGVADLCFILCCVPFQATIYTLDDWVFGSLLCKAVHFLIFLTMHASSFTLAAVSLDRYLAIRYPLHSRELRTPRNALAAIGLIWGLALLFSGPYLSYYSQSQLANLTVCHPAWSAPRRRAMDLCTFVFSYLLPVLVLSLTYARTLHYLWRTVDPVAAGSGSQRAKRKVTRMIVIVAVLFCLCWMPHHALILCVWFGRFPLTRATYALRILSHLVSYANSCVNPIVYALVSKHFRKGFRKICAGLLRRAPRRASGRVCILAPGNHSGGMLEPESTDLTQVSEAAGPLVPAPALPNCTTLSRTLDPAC
Nature of the experiment: Calcium assay at orthologue receptor. The experiment is classed as cell-based. The text has this:
(§2) These species were chosen as they represent potential downstream in vivo models to be used. Within native galanin amino acid residues 1-15 are conserved across species, we would therefore expect the Gal FC fusions comprising amino acids 2 to 13 to retain GalR2 activity in these species. Calcium imaging was used to define receptor activity.

Another experiment deals with cynomolgus GalR2. Nature of the experiment: Calcium assay at orthologue receptor. The class given is cell-based, Macaca fascicularis. As to conditions: Table 8; Calcium assays; mean +/− standard deviation.
Excerpt: as §2

Setting [5] is: Table 3, mean +/− standard deviation, n ≥ 3, highest concentration 1 μM (galnon 100 μM).
[6] abbreviates: maximum response at highest concentration tested (1 μM, except galnon at 100 μM), relative to galanin.

Turning to “GWTLNSAGYLLGPQPPGFSPFR-NH2 (C-terminus assumed) [M617, reference compound]”, the values for the Emax at GalR1 [1] and at GalR1 [2] were 99% and 90.1%, respectively.
As to “Gal1-30FC: galanin 1-30 fused to human IgG1 FC, mature chimeric protein SEQ ID NO: 23”, the “GalR2 Beta Arrestin, mean pEC50” value in the experiment with GALR2 [3] is on record as 5.7 +/− 0.4. Also, the “GalR1 Beta Arrestin pEC50” value with GalR1 [1] (setting [5]) was 5.72 +/− 0.40. Moreover, in the experiment with GalR1 [1] (setting [6]), the “GalR1 Beta Arrestin IA (%)” value is listed as 88.1 +/− 7.1%. The “GalR2 Calcium, mean pEC50” value with GALR2 [4] is 6.4 +/− 0.3. For the same compound, in the experiment with GalR1 [2] (setting [5]), the “GalR1 cAMP pEC50” value is listed as 8.4 +/− 0.2. For the same compound, the “GalR1 cAMP IA (%)” value in the experiment with GalR1 [2] (setting [6]) is reported as 93.4 +/− 11.6%.
On to “RGRGNWTLNSAGYLLGPVLPPPALALA-NH2 (C-terminus assumed) [M1145, reference compound]”, for which the Emax on GalR1 [1] was 24.5%; at GalR1 [2], 86.7%.
As for “Gal2-13FC NL: Gal2-13 FC fusion with no linker; SEQ ID NO: 36”, in the experiment with GALR2 [4], the “GalR2 activity (calcium assay), linker variants” value is listed as 7.3 +/− 0.1. The “GalR1 activity (cAMP assay), linker variants” value (“GalR1 activity (cAMP assay)” for short) in the experiment with GalR1 [2] (mean +/− standard deviation) is given as 5.9 +/− 0.2.
In the case of “Gal2-24FC: galanin 2-24, AEAAAKEAAAKA linker, human IgG1 FC; SEQ ID NO: 27”, in the experiment with GALR2 [3], the “GalR2 Beta Arrestin, mean pEC50” value is listed as 7.6 +/− 0.0. In the experiment with GALR2 [4], the “GalR2 Calcium, mean pEC50” value was 6.9 +/− 0.3 and the “GalR2 activity (calcium assay), warhead length” value is 6.9 +/− 0.3.
For the compound `CC(C)C[C@H](NC(=O)CNC(=O)[C@H](CC(N)=O)NC(=O)[C@H](CCCCN)NC(=O)[C@H](CC(=O)O)NC(=O)[C@H](CO)NC(=O)[C@H](Cc1ccccc1)NC(=O)[C@H](CO)NC(=O)[C@H](CCCNC(=N)N)NC(=O)[C@H](Cc1c[nH]cn1)NC(=O)[C@H](CC(N)=O)NC(=O)CNC(=O)[C@@H](NC(=O)[C@H](C)NC(=O)[C@H](Cc1c[nH]cn1)NC(=O)[C@@H]1CCCN1C(=O)CNC(=O)[C@H](CC(C)C)NC(=O)[C@H](CC(C)C)NC(=O)[C@H](Cc1ccc(O)cc1)NC(=O)CNC(=O)[C@H](C)NC(=O)[C@H](CO)NC(=O)[C@H](CC(N)=O)NC(=O)[C@H](CC(C)C)NC(=O)[C@@H](NC(=O)[C@H](Cc1c[nH]c2ccccc12)NC(=O)CN)[C@@H](C)O)C(C)C)C(=O)N[C@H](C(=O)N[C@@H](CO)C(=O)O)[C@@H](C)O` [Galanin 1-30 (human), reference compound], the EC50 (usually the concentration needed to bring the measured effect to its halfway point) at mouse GalR2 is 0.001 µM. Also, at cynomolgus GalR2, the “Cynomolgus GalR2 activity” value is given as 9.6 +/− 0.2.
In the case of “Gal2-13FC PA4: Gal2-13 FC fusion with PAPAPAPA linker; SEQ ID NO: 37”, the “GalR2 activity (calcium assay), linker variants” value with GALR2 [4] is 6.8 +/− 0.1. The “GalR1 activity (cAMP assay)” value with GalR1 [2] (mean +/− standard deviation) is 6.1 +/− 0.0.
In the case of `CC[C@H](C)[C@H](NC(=O)[C@H](C)NC(=O)[C@H](Cc1c[nH]cn1)NC(=O)[C@@H]1CCCN1C(=O)CNC(=O)[C@H](CC(C)C)NC(=O)[C@H](CC(C)C)NC(=O)[C@H](Cc1ccc(O)cc1)NC(=O)CNC(=O)[C@H](C)NC(=O)[C@H](CO)NC(=O)[C@H](CC(N)=O)NC(=O)[C@H](CC(C)C)NC(=O)[C@@H](NC(=O)[C@@H](N)Cc1c[nH]c2ccccc12)[C@@H](C)O)C(=O)N[C@@H](CC(=O)O)C(=O)N[C@@H](CC(N)=O)C(=O)N[C@@H](Cc1c[nH]cn1)C(=O)N[C@@H](CCCNC(=N)N)C(=O)N[C@@H](CO)C(=O)N[C@@H](Cc1ccccc1)C(=O)N[C@@H](Cc1c[nH]cn1)C(=O)N[C@@H](CC(=O)O)C(=O)N[C@@H](CCCCN)C(=O)N[C@@H](Cc1ccc(O)cc1)C(=O)NCC(=O)N[C@@H](CC(C)C)C(=O)N[C@@H](C)C(N)=O` [Galanin 2-29 (rat), reference compound], the Emax on GalR1 [1] was determined as 67.2%; on GalR1 [2], 90.8%.
With “Gal2-13FC GGS2: Gal2-13 FC fusion with GGSGGS linker; SEQ ID NO: 34”, in the experiment with GALR2 [4], the “GalR2 activity (calcium assay), linker variants” value is on record as 6.4 +/− 0.0. The “GalR1 activity (cAMP assay)” value with GalR1 [2] (mean +/− standard deviation) was 5.5 +/− 0.2.
“Gal2-18FC: galanin 2-18, AEAAAKEAAAKA linker, human IgG1 FC; SEQ ID NO: 26”: the “GalR2 Beta Arrestin, mean pEC50” value with GALR2 [3] is listed as 7.3 +/− 0.1. Also, in the experiment with GALR2 [4], the “GalR2 Calcium, mean pEC50” value was 6.7 +/− 0.1 and the “GalR2 activity (calcium assay), warhead length” value is reported as 6.7 +/− 0.1.
As for “Gal2-13FC GGS: Gal2-13 FC fusion with GGS linker; SEQ ID NO: 33”, in the experiment with GALR2 [4], the “GalR2 activity (calcium assay), linker variants” value is 6.4 +/− 0.1. The “GalR1 activity (cAMP assay)” value with GalR1 [2] (mean +/− standard deviation) is 5.3 +/− 0.1.
For “Gal2-13FC (ALA-12): Gal2-13FC with alanine at position 12; SEQ ID NO: 61”, the “activation of GalR2 in vitro (in words)” value with GALR2 [3] (positions 12 and 13 study, FIG. 2 / Table 4) was “failed to activate GalR2”.
Take `Cc1cc(=O)oc2cc(NC(=O)[C@H](CCCCN)NC(=O)[C@H](CC3CCCCC3)NC(=O)OCC3c4ccccc4-c4ccccc43)ccc12` [Galnon, reference compound] (Fmoc-[Cha]-Lys-{AMC}): the EC50 is 158 µM at GALR2 [3], more than 1 µM at GalR1 [1], 20 µM at GALR2 [4] and more than 1 µM on GalR1 [2]. Besides, the Emax on GalR1 [1] was found to be 40.1%; on GalR1 [2], 2.9%.

The record behind these values is US20260209301A1, “Galanin-2 Receptor Agonists” (LIFEARC, priority 2022, published 2026).
